Measurements from paper PMC11417388, “Trypanosome mRNA recapping is triggered by hypermethylation originating from cap 4” (Nucleic Acids Research, 2024).

Experiments:
[1] = biological target: T1, vvD1/D12 (Vaccinia virus WR, UniProt P04298)
T1 construct: gene OPG113

[2] = substrate: Nc1ncnc2c1ncn2[C@@H]1O[C@H](COP(=O)(O)OP(=O)(O)OP(=O)(O)O)[C@@H](O)[C@H]1O; test: purified protein; format: biochemical, Trypanosoma brucei; conditions: co-substrate 100 nM fully methylated cap 4 pRNA (p m6,2AmAmCm m3Um), 0.5 mM MgCl2, pH 8.5, 27 °C, labelled compound

C[S+](CC[C@H](N)C(=O)O)C[C@H]1O[C@@H](n2cnc3c(N)ncnc32)[C@H](O)[C@@H]1O (stereo partly drawn) [AdoMet]
cap methyltransferase assay on ppRNA substrates [1]: cap methyltransferase activity was compared on ppAmAmCmUm and unmodified ppRNAs

B1: TbCe1 (Trypanosoma brucei brucei TREU927) (protein)
chain: MSATDVASELRSGAPEYVPTFLRCKQSENVTAFESPVVFLMFGCRGAGKSTQSTLLSKTYNLLYLSSGDIYKSGKQPFVELRKILNEHFGDGKERVYNGVVLDRFIANSEFEAFYVQTALRSVGLPVPFVFMLAIDQGLAAKRAEERGDNKGGNQRWRAVEQKAQAITANTVYAPIQCLKTIRVESDMTIDDVFNEIKTTIANQLPPDLFNLQLPREARREVEGTVLVEDYELYMELANDVHTVVGNLRGRRDSAPLSNVGAHLDKEYFSFANKRLRSQLTTMHVTLKADGLRFLVMKHKTRGYIGFPSAFTHCYELNDLFEGVEMAPKPYTELKKWMNDKSCELPADFLLDTEVVVHEKKPTLYIIDFIYFWGLDGRRMQFEQRLKVLREYFGDMKPQGQVIAMKDYVPINKIRTLVEEMKRRTELPVDGLIFQHNGSYRFGSDKFLIKWKPVHLCTVDFRLANGRVENGVWTFDLFVTDDFIEENGFREVAYPGATALIPASVVEENGLQNGMIIEMALSEKESVKKTSPNAPSEKTRWTFRNARNDKPSPNKYSIVTRICELMHVDLDELVSLCEKVPFYRNV
notes: expressed as His-Smt3 fusion in E. coli; tag removed by Ulp1; glycerol gradient purified
Km [2]: 0.21 µM
kcat [2]: 2.3 min⁻¹
